Read-outs that look alike come from different tables or passages of the source.
How the values were obtained:
[1] = phase III, monotherapy, patients with advanced, treatment-refractory NSCLC; cited from earlier work
[2] = phase III, first-line, in combination with gemcitabine, pancreatic cancer; cited from earlier work
H358 cells = assay: TaqMan quantitative RT-PCR of ZEB1 and Snail mRNA in TGFβ3-treated H358 cells; type: cell-based, human; details: H358 cells without PAK knockdown, 72 h post-TGFβ3, TaqMan (FIG. 4)
Experimental: siRNA knockdown and TGFβ3 treatment: For PAK1 and PAK2 siRNA knockdown in H358 cells, cells were seeded at a density of 5×10^4 cells/well in 6-well dishes. Next day, the cells were transfected using Lipofectamine 2000 (Invitrogen, 11668-019) with 62.5 nM PAK1 (Invitrogen; validated stealth siRNAduplex2, 12936-54) 62.5 nM PAK2 (Invitrogen; validated stealth siRNA duplex 1, 12936-55), 62.5 nM PAK1 & 62.5 nM PAK2 siRNA, or 62.5 nM negative control (Invitrogen, 12935-300) according to the manufacturer's instructions. Transfection reagent was replaced 4 hours post transfection with fresh media. The cells were re-transfected as above 48 hrs after initial transfection. 4 hours post-transfection, the transfection reagent was replaced with fresh media plus or minus 10 nM TGFβ3.
RNA isolation and TaqMan analysis: For TaqMan analysis, total RNA was isolated 72 hours after TGFβ3 treatment of H358 cells (5 and 3 days after first and second siRNA transfections). SuperArray's (SuperArray Bioscience Corp. Frederick, Md. 21704, USA) Total RNA Isolation Kit (GA-013) was used. Subsequently first strand cDNAs were made using RT PCR Array First Strand Kit (SuperArray; C-02). Quantitative-RT-PCR analyses were performed using Taqman Gene Expression Assays (Applied Biosystems, Foster City, Calif.) for PAK1, PAK2, Zeb1, and Snail.

H358 NSCLC cells = assay: TGFβ3 induction of EMT in H358 NSCLC cells (western blot); type: cell-based, human; details: TGFβ3 1 nM, 7 days (FIG. 1)
Experimental: FIG. 1: TGFβ3 induces EMT in H358 NSCLC cells. H358 cells were treated with TGFβ3 (1 nM, 7 days) in the presence or absence of the TGFβ receptor kinase inhibitor SB43 1542. Protein extracts were analyzed by western blot using the indicated antibodies.
Western blot analysis: For western blot analysis in H358 cells, cells were harvested 72 hrs after the addition of TGFβ3 addition (5 and 3 days after first and second siRNA transfections). For western blot analysis in HCT116/tet-on/Snail-Flag cells, cells were harvested 24 hours after Dox addition. […] Cell lysates were cleared of insoluble material by centrifugation at 15,000×g for 5 minutes at 4° C. Protein concentrations were measured in the resultant supernatant using the BCA protein analysis kit ([…].; 23225). 15 ug total lysate was used for SDS-PAGE followed by immunoblotting with the appropriate antibodies. The following antibodies were used: E-cadherin (Cell Signaling, Beverly, Mass.; 3195), vimentin (BD Biosciences, San Jose, Calif.; 550513), ErbB3 (Santa Cruz Biotechnology, Santa Cruz, Calif.; sc285), PAK1 (Cell Signaling, 2062), PAK2 (Cell Signaling, 2068), Flag (Sigma, F3165), ZEB1 (Santa Cruz, sc25388), N-Cadherin (Santa Cruz, sc7939), Fibronection (BD, 610078), β-action (Sigma, A1978).

Molecule	disease progression [1]	survival [1]	worsening of lung cancer-related symptoms [1]	survival [2]	Snail mRNA induction by TGFβ3 (H358 cells)	ZEB1 mRNA induction by TGFβ3 (H358 cells)	expression of epithelial markers (E-cadherin and ErbB3) (H358 NSCLC cells)	expression of mesenchymal markers (vimentin, N-cadherin, and fibronectin) (H358 NSCLC cells)	protein levels of the EMT driver ZEB1 (H358 NSCLC cells)
C#Cc1cccc(Nc2ncnc3cc(OCCOC)c(OCCOC)cc23)c1 [erlotinib, [6,7-bis(2-methoxyethoxy)-4-quinazolin-4-yl]-(3-ethynylphenyl) amine]	delayed disease progression	significantly prolonged survival	delayed worsening of lung cancer-related symptoms	improves survival					
TGFβ3: Human recombinant mature TGF-beta3 prepared and purified at OSI Pharmaceuticals; EMT inducer (protein, UniProt P10600 301-412, looked up, Transforming growth factor beta-3, Human recombinant mature TGF-beta3 prepared and purified at OSI Pharmaceuticals; EMT inducer) Transforming growth factor …: ALDTNYCFRNLEENCCVRPLYIDFRQDLGWKWVHEPKGYYANFCSGPCPYLRSADTTHSTVLGLYNTLNPEASASPCCVPQDLEPLTILYYVGRTPKVEQLSNMVVKSCKCS					~2.8 fold	6 fold	downregulating the expression of epithelial markers (E-cadherin and ErbB3)	upregulating that of mesenchymal markers (vimentin, N-cadherin, and fibronectin)	increase in the protein levels of the EMT driver ZEB1

Reference: patent US7998688B2, “Inhibition of EMT induction in tumor cells by anti-cancer agents” (OSI Pharmaceuticals, LLC, priority 2008, dated 2011)
